Results published in paper PMC4186791, “The Intrinsically Disordered Regions of the Drosophila melanogaster Hox Protein Ultrabithorax Select Interacting Proteins Based on Partner Topology” (PLoS ONE, 2014).

Assays:
[1] = molecular target: T1, UbxIb N103 Pro4 (Drosophila melanogaster, UniProt P83949 1-389, amino acids 2–102 removed (N103) | A226P | Q233P); experiment: two-hybrid; LexA-Ubx variant (pLexA) and B42-partner (pB42) co-transformed into S. cerevisiae EGY48 carrying p8op-LacZ; blue/white colonies on X-gal and liquid β-galactosidase (ONPG) assay after galactose induction at 30°C, reported in Miller units; conditions: partners not purified
T1 construct: Ultrabithorax (Ubx), Drosophila melanogaster, isoform Ib, from which amino acids 2–102 (Region 1) are removed, with the Pro4 mutations; Form is the full-length isoform Ib less the stated deletion; also called UbxIb N103 Pro4 (0, D2,0, D4, S5); source: yeast two-hybrid fusion (pLexA, S. cerevisiae EGY48)

[2] = molecular target: T2, UbxIb Δ103–216 (Drosophila melanogaster, UniProt P83949 1-389, Δ103-216); experiment: as above; conditions: partners not purified
T2 construct: source: yeast two-hybrid fusion (pLexA, S. cerevisiae EGY48)
T2 sequence (P83949 other isoform, or with tags, fused parts or gaps Δ103-216 | Δ103-216 | mutant): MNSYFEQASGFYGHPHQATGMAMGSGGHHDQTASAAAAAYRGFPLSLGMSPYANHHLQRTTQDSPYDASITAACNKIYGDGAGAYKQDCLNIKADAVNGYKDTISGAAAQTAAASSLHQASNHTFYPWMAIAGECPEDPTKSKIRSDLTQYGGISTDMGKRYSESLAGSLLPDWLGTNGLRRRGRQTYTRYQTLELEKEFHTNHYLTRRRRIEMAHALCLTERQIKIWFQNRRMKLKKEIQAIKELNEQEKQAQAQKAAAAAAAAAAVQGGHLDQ

T1 sequence (P83949 other isoform, or with tags, fused parts or gaps with the stated changes): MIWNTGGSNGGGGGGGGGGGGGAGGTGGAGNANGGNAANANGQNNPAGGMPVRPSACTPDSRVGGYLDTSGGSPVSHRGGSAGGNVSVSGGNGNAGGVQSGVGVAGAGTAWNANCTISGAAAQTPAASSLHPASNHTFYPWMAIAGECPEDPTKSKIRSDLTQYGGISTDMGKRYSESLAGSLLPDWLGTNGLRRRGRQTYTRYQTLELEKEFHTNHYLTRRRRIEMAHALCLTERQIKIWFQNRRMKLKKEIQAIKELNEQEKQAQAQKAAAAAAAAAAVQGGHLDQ

| Binder | percent of reporter signal lost relative to UbxIb Pro4 [1] [%] | percent of reporter signal lost relative to UbxIb Pro4 [2] [%] |
| --- | --- | --- |
| Dishevelled (natural protein, Drosophila melanogaster, UniProt P51140 1-623, looked up, Dishevelled (Dsh), Drosophila melanogaster; also called Dsh; source: yeast two-hybrid fusion (pB42, S. cerevisiae EGY48)) MDADRGGGQETKVIYHIDDETTPYLVKIPIPSAQVTLRDFKLVLNKQNNNYKYFFKSMDADFGVVKEEIADDSTILPCFNGRVVSWLVSADGTNQSDNCSELPTSECELGMGLTNRKLQQQQQQHQQQQQQQQQQHQQQQQQQQQQVQPVQLAQQQQQQVLHHQKMMGNPLLQPPPLTYQSASVLSSDLDSTSLFGTESELTLDRDMTDYSSVQRLQVRKKPQRRKKRAPSMSRTSSYSSITDSTMSLNIITVSINMEAVNFLGISIVGQSNRGGDGGIYVGSIMKGGAVALDGRIEPGDMILQVNDVNFENMTNDEAVRVLREVVQKPGPIKLVVAKCWDPNPKGYFTIPRTEPVRPIDPGAWVAHTQALTSHDSIIADIAEPIKERLDQNNLEEIVKAMTKPDSGLEIRDRMWLKITIPNAFIGADAVNWVLENVEDVQDRREARRIVSAMLRSNYIKHTVNKLTFSEQCYYVVNEERNPNLLGRGHLHPHQLPHGHGGHALSHADTESITSDIGPLPNPPIYMPYSATYNPSHGYQPIQYGIAERHISSGSSSSDVLTSKDISASQSDITSVIHQANQLTIAAHGSNKSSGSSNRGGGGGGGGGGNNTNDQDVSVFNYVL | ≥ 59 | ≥ 59 |
| 14-3-3ε (natural protein, Drosophila melanogaster, UniProt P92177 1-262, looked up, 14-3-3ε, Drosophila melanogaster; source: yeast two-hybrid fusion (pB42, S. cerevisiae EGY48)) MTERENNVYKAKLAEQAERYDEMVEAMKKVASMDVELTVEERNLLSVAYKNVIGARRASWRIITSIEQKEENKGAEEKLEMIKTYRGQVEKELRDICSDILNVLEKHLIPCATSGESKVFYYKMKGDYHRYLAEFATGSDRKDAAENSLIAYKAASDIAMNDLPPTHPIRLGLALNFSVFYYEILNSPDRACRLAKAAFDDAIAELDTLSEESYKDSTLIMQLLRDNLTLWTSDMQAEEVDPNAGDGEPKEQIQDVEDQDVS | ≥ 59 | ≥ 59 |
| Ribosomal protein L22 (natural protein, Ribosomal protein L22 (RpL22), Drosophila melanogaster; also called RpL22; source: yeast two-hybrid fusion (pB42, S. cerevisiae EGY48)) not shown | ≥ 59 | ≥ 59 |
